Data taken from US20210230570A1.

What was measured:
[1] = biological target: Factor VIIIa (recombinant FVIII, Kogenate FS, activated with alpha-thrombin) (UniProt P00451); assay: apparent KD (KD-app): FX activation rate (Spectrafluor FXa fluorescence) vs FVIIIa titration, PC/PS vesicles, Ca2+; indirect functional assay
[2] = biological target: Factor VIIIa (recombinant FVIII, Kogenate FS, activated with alpha-thrombin) (UniProt P00451); assay: functional KD-app: FVIIIa titrated (0-400 nM) on 2 pM FIXa, PC/PS vesicles, 500 nM FX, fluorogenic FXa substrate
[3] = biological target: plasma purified human AT-III (antithrombin III), in complex with low molecular weight heparin (human) (UniProt P01008); assay: K0.5: AT-III conc. for 50% inhibition of FIXa cleavage of Pefafluor FIXa; AT-III/LMWH, 1 uM LMWH, 1 min
plasma purified human AT-III (antithrombin III), in complex with low molecular weight heparin (human), sequence (P01008 33-464, one chain of several): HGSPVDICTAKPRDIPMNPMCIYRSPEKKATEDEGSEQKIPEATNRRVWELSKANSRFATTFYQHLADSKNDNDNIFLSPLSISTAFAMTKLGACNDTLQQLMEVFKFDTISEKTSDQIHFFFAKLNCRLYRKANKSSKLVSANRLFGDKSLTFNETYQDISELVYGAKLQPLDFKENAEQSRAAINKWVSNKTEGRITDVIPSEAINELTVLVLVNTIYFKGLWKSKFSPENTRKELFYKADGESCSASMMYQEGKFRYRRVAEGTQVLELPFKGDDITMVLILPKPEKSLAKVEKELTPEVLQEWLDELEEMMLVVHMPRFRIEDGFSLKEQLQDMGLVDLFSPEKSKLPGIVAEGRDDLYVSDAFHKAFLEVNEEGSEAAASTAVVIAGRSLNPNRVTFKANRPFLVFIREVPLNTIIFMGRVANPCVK

Factor VIIIa (recombinant FVIII, Kogenate FS, activated with alpha-thrombin), sequence (P00451 20-391, chain 1 of 3): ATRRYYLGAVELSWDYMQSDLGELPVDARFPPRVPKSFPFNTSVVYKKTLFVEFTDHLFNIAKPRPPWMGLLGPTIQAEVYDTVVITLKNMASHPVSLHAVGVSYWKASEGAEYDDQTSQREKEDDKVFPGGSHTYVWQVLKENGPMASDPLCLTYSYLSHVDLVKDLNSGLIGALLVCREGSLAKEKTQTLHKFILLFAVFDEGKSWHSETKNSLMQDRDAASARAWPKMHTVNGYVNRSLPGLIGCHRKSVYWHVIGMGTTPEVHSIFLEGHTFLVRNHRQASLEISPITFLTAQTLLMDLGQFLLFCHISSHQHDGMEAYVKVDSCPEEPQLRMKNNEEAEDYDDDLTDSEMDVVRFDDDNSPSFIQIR
Factor VIIIa (recombinant FVIII, Kogenate FS, activated with alpha-thrombin), sequence (P00451 392-759, chain 2 of 3): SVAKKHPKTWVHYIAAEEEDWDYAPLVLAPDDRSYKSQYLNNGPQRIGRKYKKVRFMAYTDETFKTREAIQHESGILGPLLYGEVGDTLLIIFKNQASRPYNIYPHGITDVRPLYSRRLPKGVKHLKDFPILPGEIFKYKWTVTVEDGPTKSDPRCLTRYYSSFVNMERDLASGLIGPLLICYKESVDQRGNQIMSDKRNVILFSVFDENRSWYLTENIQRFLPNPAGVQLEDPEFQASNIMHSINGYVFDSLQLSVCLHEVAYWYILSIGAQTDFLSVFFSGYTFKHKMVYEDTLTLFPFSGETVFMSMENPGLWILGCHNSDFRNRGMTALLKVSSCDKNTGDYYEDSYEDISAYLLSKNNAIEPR
Factor VIIIa (recombinant FVIII, Kogenate FS, activated with alpha-thrombin), sequence (P00451 1709-2351, chain 3 of 3): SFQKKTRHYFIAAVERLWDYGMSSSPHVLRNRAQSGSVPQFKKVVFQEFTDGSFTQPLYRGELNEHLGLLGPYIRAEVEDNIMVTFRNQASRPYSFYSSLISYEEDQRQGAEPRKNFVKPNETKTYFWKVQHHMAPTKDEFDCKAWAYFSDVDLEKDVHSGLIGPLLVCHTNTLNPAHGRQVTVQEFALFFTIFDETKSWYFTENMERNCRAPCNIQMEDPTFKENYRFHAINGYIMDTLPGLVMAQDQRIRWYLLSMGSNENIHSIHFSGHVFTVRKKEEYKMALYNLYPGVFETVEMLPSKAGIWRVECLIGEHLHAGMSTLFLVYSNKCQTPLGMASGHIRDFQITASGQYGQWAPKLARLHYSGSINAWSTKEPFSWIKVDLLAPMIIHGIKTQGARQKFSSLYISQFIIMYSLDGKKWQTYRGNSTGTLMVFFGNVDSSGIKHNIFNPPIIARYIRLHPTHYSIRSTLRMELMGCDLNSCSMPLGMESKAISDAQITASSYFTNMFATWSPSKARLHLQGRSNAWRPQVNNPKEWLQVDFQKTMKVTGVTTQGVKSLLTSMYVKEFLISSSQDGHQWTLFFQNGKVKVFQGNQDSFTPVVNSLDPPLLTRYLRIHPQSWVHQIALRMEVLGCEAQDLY

| Substance | Kd [1] [nM] | Kd [2] [nM] | further results |
| --- | --- | --- | --- |
| BeneFIX Coagulation FIX (T148A), activated (FIXa) (from UniProt P00740 47-191; P00740 227-461) (enzyme) | 90.2 | – | – |
| Catalyst Biosciences WT FIXa (recombinant wild-type FIXa) (from UniProt P00740 47-191; P00740 227-461) (enzyme) | 95.5 | – | – |
| FIXa variant A204M (from UniProt P00740 47-191; P00740 227-461) (enzyme) | 60.6 | – | – |
| FIXa variant A262S (from UniProt P00740 47-191; P00740 227-461) (enzyme) | 94.1 | – | – |
| FIXa variant D104N/K106S/I251S (from UniProt P00740 47-191; P00740 227-461) (enzyme) | 306 | – | – |
| FIXa variant D104N/K106S/R318Y/R338E/E410N (from UniProt P00740 47-191; P00740 227-461) (enzyme) | 12.4 | – | – |
| FIXa variant D104N/K106S/Y155F/R318Y/R338E/R403E/E410N (from UniProt P00740 47-191; P00740 227-461) (enzyme) | 61.6 | – | – |
| FIXa variant D203Y (from UniProt P00740 47-191; P00740 227-461) (enzyme) | 77.4 | – | – |
| FIXa variant E239N (from UniProt P00740 47-191; P00740 227-461) (enzyme) | 77.3 | – | – |
| FIXa variant E410N (from UniProt P00740 47-191; P00740 227-461) (enzyme) | 74.2 | – | – |
| FIXa variant E410S (from UniProt P00740 47-191; P00740 227-461) (enzyme) | 99.6 | – | – |
| FIXa variant H257E (from UniProt P00740 47-191; P00740 227-461) (enzyme) | 81.3 | – | – |
| FIXa variant K293A (from UniProt P00740 47-191; P00740 227-461) (enzyme) | 86.6 | – | – |
| FIXa variant K316N (from UniProt P00740 47-191; P00740 227-461) (enzyme) | 66.4 | – | – |
| FIXa variant K400A (from UniProt P00740 47-191; P00740 227-461) (enzyme) | 98.9 | – | – |
| FIXa variant K400A/R403A (from UniProt P00740 47-191; P00740 227-461) (enzyme) | 130 | – | – |
| FIXa variant K400E/R403E (from UniProt P00740 47-191; P00740 227-461) (enzyme) | 298 | – | – |
| FIXa variant N346D (from UniProt P00740 47-191; P00740 227-461) (enzyme) | 126 | – | – |
| FIXa variant R312A (from UniProt P00740 47-191; P00740 227-461) (enzyme) | 52.9 | – | – |
| FIXa variant R312L (from UniProt P00740 47-191; P00740 227-461) (enzyme) | 68.9 | – | – |

| Substance | Kd [1] [nM] | Kd [2] [nM] | further results |
| --- | --- | --- | --- |
| FIXa variant R312Q (from UniProt P00740 47-191; P00740 227-461) (enzyme) | 45.2 | – | – |
| FIXa variant R312Y (from UniProt P00740 47-191; P00740 227-461) (enzyme) | 85.2 | – | – |
| FIXa variant R318E (from UniProt P00740 47-191; P00740 227-461) (enzyme) | 67 | – | – |
| FIXa variant R318Y (from UniProt P00740 47-191; P00740 227-461) (enzyme) | 192 | – | – |
| FIXa variant R318Y/R338E/E410N (from UniProt P00740 47-191; P00740 227-461) (enzyme) | 7.7 | – | – |
| FIXa variant R318Y/R338E/R403E (from UniProt P00740 47-191; P00740 227-461) (enzyme) | 340 | – | – |
| FIXa variant R318Y/R338E/R403E/E410N (from UniProt P00740 47-191; P00740 227-461) (enzyme) | 47 | – | – |
| FIXa variant R338E (from UniProt P00740 47-191; P00740 227-461) (enzyme) | 43 | – | – |
| FIXa variant R338E/E410N (from UniProt P00740 47-191; P00740 227-461) (enzyme) | 4.1 | – | – |
| FIXa variant R338E/R403E (from UniProt P00740 47-191; P00740 227-461) (enzyme) | 183 | – | – |
| FIXa variant R338E/R403E/E410N (from UniProt P00740 47-191; P00740 227-461) (enzyme) | 54.9 | – | – |
| FIXa variant R403E (from UniProt P00740 47-191; P00740 227-461) (enzyme) | 654 | – | – |
| FIXa variant R403E/E410N (from UniProt P00740 47-191; P00740 227-461) (enzyme) | 910 | – | – |
| FIXa variant S319N/L321S (from UniProt P00740 47-191; P00740 227-461) (enzyme) | 52.4 | – | – |
| FIXa variant T148A (from UniProt P00740 47-191; P00740 227-461) (enzyme) | 79.7 | – | – |
| FIXa variant T241N/H243S (from UniProt P00740 47-191; P00740 227-461) (enzyme) | 75.5 | – | – |
| FIXa variant V202Y (from UniProt P00740 47-191; P00740 227-461) (enzyme) | 61.5 | – | – |
| FIXa-K228N/K247N/N249S/R318Y/R338E/T343R/E410N (from UniProt P00740 47-191; P00740 227-461) (enzyme) | – | 7.8 | – |
| FIXa-K228N/K247N/N249S/R318Y/R338E/T343R/R403E/E410N (from UniProt P00740 47-191; P00740 227-461) (enzyme) | – | 29.1 | – |
| FIXa-K228N/R318Y/R338E/T343R/R403E/E410N (from UniProt P00740 47-191; P00740 227-461) (enzyme) | – | 17.5 | – |

| Substance | Kd [1] [nM] | Kd [2] [nM] | further results |
| --- | --- | --- | --- |
| FIXa-K247N/N249S/R318Y/R338E/T343R (from UniProt P00740 47-191; P00740 227-461) (enzyme) | – | 14.7 | – |
| FIXa-R318Y/R338E/T343R (from UniProt P00740 47-191; P00740 227-461) (enzyme) | – | 9.8 | – |
| FIXa-R318Y/R338E/T343R/E410N (from UniProt P00740 47-191; P00740 227-461) (enzyme) | – | 6.1 | – |
| FIXa-R318Y/R338E/T343R/R403E/E410S (from UniProt P00740 47-191; P00740 227-461) (enzyme) | – | 23.2 | – |
| FIXa-R318Y/T343R/R403E/E410N (from UniProt P00740 47-191; P00740 227-461) (enzyme) | – | 84.1 | – |
| FIXa-R338E/T343R/E410N (from UniProt P00740 47-191; P00740 227-461) (enzyme) | – | 7.5 | – |
| FIXa-R338E/T343R/R403E (from UniProt P00740 47-191; P00740 227-461) (enzyme) | – | 55 | – |
| FIXa-R338E/T343R/R403E/E410N (from UniProt P00740 47-191; P00740 227-461) (enzyme) | – | 29.4 | – |
| FIXa-Y155F/K228N/K247N/N249S/R318Y/R338E/T343R/R403E/E410N (from UniProt P00740 47-191; P00740 227-461) (enzyme) | – | 37 | – |
| FIXa-Y155F/K247N/N249S/R318Y/R338E/T343R/E410N (from UniProt P00740 47-191; P00740 227-461) (enzyme) | – | 13.9 | – |
| FIXa-Y155F/K247N/N249S/R318Y/R338E/T343R/R403E/E410N (from UniProt P00740 47-191; P00740 227-461) (enzyme) | – | 15.3 | – |
| FIXa-Y155F/K247N/N249S/R338E/E410N (from UniProt P00740 47-191; P00740 227-461) (enzyme) | – | 24.9 | – |
| FIXa-Y155F/K247N/N249S/R338E/T343R (from UniProt P00740 47-191; P00740 227-461) (enzyme) | – | 15.4 | – |
| FIXa-Y155F/R318Y/R338E/T343R (from UniProt P00740 47-191; P00740 227-461) (enzyme) | – | 8.4 | – |
| FIXa-Y155F/R318Y/R338E/T343R/E410N (from UniProt P00740 47-191; P00740 227-461) (enzyme) | – | 7.4 | – |
| FIXa-Y155F/R318Y/T343R/E410N (from UniProt P00740 47-191; P00740 227-461) (enzyme) | – | 38 | – |
| FIXa-Y155F/R338E/T343R/E410N (from UniProt P00740 47-191; P00740 227-461) (enzyme) | – | 8.5 | – |
| FIXa-Y155F/R338E/T343R/R403E (from UniProt P00740 47-191; P00740 227-461) (enzyme) | – | 72.1 | – |
| FIXa-Y155F/R338E/T343R/R403E/E410N (from UniProt P00740 47-191; P00740 227-461) (enzyme) | – | 28.5 | – |
| Plasma Purified FIXa (from UniProt P00740 47-191; P00740 227-461) (enzyme) | – | – | IC50 [3]: 20.2 nM |
